Our source for the Kd values is paper PMC8809517, “Cofactor-independent RNA editing by a synthetic S-type PPR protein”.

Where a chain is given by its changes, count along the chain named.

Common to all, as to test: high-throughput RNA pulldown from lysate on Ni-NTA beads; HRP: 50 mM Tris pH 8, 150 mM NaCl, 1 mM beta-mercaptoethanol, 50 ug/ml BSA, 3 ug/ml yeast RNA, 0.5% heparin; ITC and FP: Tris pH 8, 200 mM KCl, 5% glycerol; MST: 50 mM Tris pH 8, 200 mM NaCl, 1 mM DTT, BSA, heparin, 0.05% Tween 20
Settings in all cases: tags: N-terminal His-eGFP

For data set [1], the target named is T1, GFP-9S library array, motif 4 ND N98A;D124L (synthetic construct, N98A;D124L).
T1 chain: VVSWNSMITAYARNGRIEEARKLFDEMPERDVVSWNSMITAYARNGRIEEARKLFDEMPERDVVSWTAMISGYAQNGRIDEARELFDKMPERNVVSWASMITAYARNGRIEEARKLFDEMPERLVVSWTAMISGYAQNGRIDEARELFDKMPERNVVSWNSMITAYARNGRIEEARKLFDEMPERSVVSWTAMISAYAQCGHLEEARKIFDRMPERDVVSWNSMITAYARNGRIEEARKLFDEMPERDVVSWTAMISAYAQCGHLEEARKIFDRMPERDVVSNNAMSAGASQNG

Data set [2] concerns the target T2, GFP-9S library array, motif 4 ND N98D;D124H (synthetic construct, N98D;D124H).
T2 chain: T1 chain with A98D, L124H

The target of data set [3] is T3, GFP-9S library array, motif 4 ND D124W (synthetic construct, D124W).
T3 chain: T1 chain with A98N, L124W

The target of data set [4] is T4, GFP-9S library array, motif 4 ND N98H;D124L (synthetic construct, N98H;D124L).
T4 chain: T1 chain with A98H

Data set [5] deals with T5, GFP-9S library array, motif 4 ND N98Y;D124T (synthetic construct, N98Y;D124T).
T5 chain: T1 chain with A98Y, L124T

B1: IR-rpoA-A (ssRNA)
RNA: AUUAAACGUGA
Turning to B1, the Kd turned out to be 272 nM in data set [1] (label: 5' IRDye 800CW); 311 nM in data set [2] (label: 5' IRDye 800CW); 164 nM in data set [3] (label: 5' IRDye 800CW); 82.1 nM in data set [4] (label: 5' IRDye 800CW); 158 nM in data set [5] (label: 5' IRDye 800CW).

B2: Cy5-rpoA-G (ssRNA)
RNA: AUUAGACGUGA
Consider B2, for which the dissociation constant Kd turned out to be 134 nM in data set [1] (label: 5' Cy5); 120 nM in data set [2] (label: 5' Cy5); 89.4 nM in data set [3] (label: 5' Cy5); 55.6 nM in data set [4] (label: 5' Cy5); 105 nM in data set [5] (label: 5' Cy5).

B3: Cy5-rpoA (ssRNA)
RNA: AUUACACGUGA
As to B3, the Kd is 129 nM in data set [1] (label: 5' Cy5); 123 nM in data set [2] (label: 5' Cy5); 78.7 nM in data set [3] (label: 5' Cy5); 60.1 nM in data set [4] (label: 5' Cy5); 96.3 nM in data set [5] (label: 5' Cy5).

B4: IR-rpoA-U (ssRNA)
RNA: AUUAUACGUGA
In the case of B4, the Kd in data set [1] (label: 5' IRDye 800CW) was found to be 255 nM; in data set [2] (label: 5' IRDye 800CW) it was 182 nM; in data set [3] (label: 5' IRDye 800CW), 210 nM; in data set [4] (label: 5' IRDye 800CW) it was 32.7 nM; in data set [5] (label: 5' IRDye 800CW) it was 75 nM.

Usually Kd stands for the equilibrium constant for the complex coming apart. Lower therefore signals a tighter complex.
